According to US20200080117A1 (UNIVERSIDAD POLIT CNICA DE MADRID, published 2020):

Molecular target: T1, NifU (A. vinelandii NifU expressed in yeast strain SB33Y as SU9-NifU) (Azotobacter vinelandii, UniProt P05340 2-312)
T1 sequence: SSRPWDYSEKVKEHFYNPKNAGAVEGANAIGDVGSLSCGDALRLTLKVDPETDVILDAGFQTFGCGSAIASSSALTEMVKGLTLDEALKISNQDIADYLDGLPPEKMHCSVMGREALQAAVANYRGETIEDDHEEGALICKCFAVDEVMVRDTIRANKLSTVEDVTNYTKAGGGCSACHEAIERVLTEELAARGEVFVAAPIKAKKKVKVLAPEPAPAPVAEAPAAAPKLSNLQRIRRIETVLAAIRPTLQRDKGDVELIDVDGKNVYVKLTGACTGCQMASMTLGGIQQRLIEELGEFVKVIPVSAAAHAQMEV
Experiment: co-purification on Strep-Tactin column from SB33Y extract, immunoblot

- binding result: no binding
B1: TS-NifB^USF (SU9-Twin-Strep-NifBMi purified from yeast strain SB33Y, co-expressed with NifU, NifS and FdxN-HA) (enzyme)
chain: not shown
notes: Same polypeptide as m1, purified from SB33Y; As isolated it carries about 6.1 Fe per monomer as [4Fe-4S] clusters and is active; The range 68-405 was derived from the printed N-terminus SSSAW; also called SU9-TS-NifBMi
